# Experimental data as given in IntAct's records for PubMed 30262834.
# B1: Leucine-rich repeat transmembrane neuronal protein 2 (Homo sapiens), O43300 (parent)
# chain: MGLHFKWPLGAPMLAAIYAMSMVLKMLPALGMACPPKCRCEKLLFYCDSQGFHSVPNATDKGSLGLSLRHNHITELERDQFASFSQLTWLHLDHNQISTVKEDAFQGLYKLKELILSSNKIFYLPNTTFTQLINLQNLDLSFNQLSSLHPELFYGLRKLQTLHLRSNSLRTIPVRLFWDCRSLEFLDLSTNRLRSLARNGFAGLIKLRELHLEHNQLTKINFAHFLRLSSLHTLFLQWNKISNLTCGMEWTWGTLEKLDLTGNEIKAIDLTVFETMPNLKILLMDNNKLNSLDSKILNSLRSLTTVGLSGNLWECSARICALASWLGSFQGRWEHSILCHSPDHTQGEDILDAVHGFQLCWNLSTTVTVMATTYRDPTTEYTKRISSSSYHVGDKEIPTTAGIAVTTEEHFPEPDNAIFTQRVITGTMALLFSFFFIIFIVFISRKCCPPTLRRIRQCSMVQNHRQLRSQTRLHMSNMSDQGPYNEYEPTHEGPFIIINGYGQCKCQQLPYKECEV
# Variants of: B1
# Settings: with NRXN1, P58400-1
# Sequence of NRXN1, P58400-1 (P58400 other isoform, or with tags, fused parts or gaps): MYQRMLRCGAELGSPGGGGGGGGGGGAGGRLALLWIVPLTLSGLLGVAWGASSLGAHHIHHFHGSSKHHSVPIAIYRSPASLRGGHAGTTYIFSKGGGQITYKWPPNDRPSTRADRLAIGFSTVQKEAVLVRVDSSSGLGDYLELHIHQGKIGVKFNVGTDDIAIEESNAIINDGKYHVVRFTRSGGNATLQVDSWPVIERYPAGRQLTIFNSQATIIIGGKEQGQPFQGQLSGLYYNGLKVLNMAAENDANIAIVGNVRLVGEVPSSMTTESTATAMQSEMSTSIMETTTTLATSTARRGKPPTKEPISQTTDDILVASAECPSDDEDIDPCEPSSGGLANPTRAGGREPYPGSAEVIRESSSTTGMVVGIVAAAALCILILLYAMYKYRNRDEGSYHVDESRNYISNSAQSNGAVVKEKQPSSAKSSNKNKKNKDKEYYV
row,Variant,effect of a mutation on the interaction
1,H355A,with no effect
2,F357A,decreasing interaction strength
3,D352A,decreasing interaction strength
4,R208A,disrupting interaction strength
5,E348Q,disrupting interaction strength
